Paper PMC6269424

What was measured:
[1] = western blot of adipose tissue; details: glycan lost; control: HFD-fed Con (OGTflox) mice
[2] = phospho-PPARγ western blot of adipose tissue; details: glycan lost; control: HFD-fed Con (OGTflox) mice

B1: PPARγ2: adipocyte-specific OGT knockout (FKO) (protein)
parent chain: MGETLGDSPVDPEHGAFADALPMSTSQEITMVDTEMPFWPTNFGISSVDLSVMEDHSHSFDIKPFTTVDFSSISAPHYEDIPFTRADPMVADYKYDLKLQEYQSAIKVEPASPPYYSEKTQLYNRPHEEPSNSLMAIECRVCGDKASGFHYGVHACEGCKGFFRRTIRLKLIYDRCDLNCRIHKKSRNKCQYCRFQKCLAVGMSHNAIRFGRMPQAEKEKLLAEISSDIDQLNPESADLRALAKHLYDSYIKSFPLTKAKARAILTGKTTDKSPFVIYDMNSLMMGEDKIKFKHITPLQEQSKEVAIRIFQGCQFRSVEAVQEITEYAKNIPGFINLDLNDQVTLLKYGVHEIIYTMLASLMNKDGVLISEGQGFMTREFLKNLRKPFGDFMEPKFEFAVKFNALELDDSDLAIFIAVIILSGDRPGLLNVKPIEDIQDNLLQALELQLKLNHPESSQLFAKVLQKMTDLRQIVTEHVQLLHVIKKTETDMSLHPLLQEIYKDLY
With B1 the expression_or_secretion [1] was “decreases” and the “other: Ser112 phosphorylation” value [2] was “increases”.
